{"source": "patent US7985889B2", "about": "“AtMIN7 mediated disease resistance to Pseudomonas syringae in Arabidopsis” (priority 2007, dated 2011)", "molecules": {"B1": {"name": "full-length HopM1: Pst DC3000 HopM1, a 712-aa type III effector virulence protein (SEQ ID NO:34) (protein)", "chain": "MISSRIGGAGGVELSRVNQQHDTVPAQTAHPNAVTAGMNPPLTPDQSGSHATESSSAGAARLNVAARHTQLLQAFKAEHGTAPVSGAPMISSRAALLIGSLLQAEPLPFEVMAEKLSPERYQLKQFQGSDLQQRLEKFAQPGQIPDKAEVGQLIKGFAQSVADQLEHFQLMHDASPATVGQHAKADKATLAVSQTALGEYAGRASKAIGEGLSNSIASLDEHISALDLTLQDAEQGNKESLHADRQALVDAKTTLVGLHADFVKSPEAKRLASVAAHTQLDNVVSDLVTARNTVGGWKGAGPIVAAAVPQFLSSMTHLGYVRLSTSDKLRDTIPETSSDANMLKASIIGMVAGIAHETVNSVVKPMFQAALQKTGLNERLNMVPMKAVDTNTVIPDPFELKSEHGELVKKTPEEVAQDKAFVKSERALLNQKKVQGSSTHPVGELMAYSAFGGSQAVRQMLNDVHQINGQTLSARALASGFGGAVSASSQTLLQLKSNYVDPQGRKIPVFTPDRAESDLKKDLLKGMDLREPSVRTTFYSKALSGIQSSALTSALPPVTAQAEGASGTLSAGAILRNMALAATGSVSYLSTLYTNQSVTAEAKALKAAGMGGATPMLDRTETALNNIRHPNRESLPHTFQKSTLSGIPRVAENAYHMGRGALQLPTQMAVDTVRVVDEGVLNAVASAREALKQPTKDDDALRALEEGLLDPR", "modifications": "Pseudomonas syringae pv. tomato str. DC3000"}, "B2": {"name": "6×His-HopM1301-712: 6×His-tagged C-terminal HopM1 fragment, amino acids 301-712 (protein)", "chain": "GPIVAAAVPQFLSSMTHLGYVRLSTSDKLRDTIPETSSDANMLKASIIGMVAGIAHETVNSVVKPMFQAALQKTGLNERLNMVPMKAVDTNTVIPDPFELKSEHGELVKKTPEEVAQDKAFVKSERALLNQKKVQGSSTHPVGELMAYSAFGGSQAVRQMLNDVHQINGQTLSARALASGFGGAVSASSQTLLQLKSNYVDPQGRKIPVFTPDRAESDLKKDLLKGMDLREPSVRTTFYSKALSGIQSSALTSALPPVTAQAEGASGTLSAGAILRNMALAATGSVSYLSTLYTNQSVTAEAKALKAAGMGGATPMLDRTETALNNIRHPNRESLPHTFQKSTLSGIPRVAENAYHMGRGALQLPTQMAVDTVRVVDEGVLNAVASAREALKQPTKDDDALRALEEGLLDPR", "modifications": "left off: small tags and cut ends"}, "B3": {"name": "HopM1101-712: HopM1 truncated derivative lacking the first 100 aa (SEQ ID NO:98) (protein, listed as Pseudomonas syringae)", "chain": "LLQAFKAEHGTAPVSGAPMISSRAALLIGSLLQAEPLPFEVMAEKLSPERYQLKQFQGSDLQQRLEKFAQPGQIPDKAEVGQLIKGFAQSVADQLEHFQLMHDASPATVGQHAKADKATLAVSQTALGEYAGRASKAIGEGLSNSIASLDEHISALDLTLQDAEQGNKESLHADRQALVDAKTTLVGLHADFVKSPEAKRLASVAAHTQLDNVVSDLVTARNTVGGWKGAGPIVAAAVPQFLSSMTHLGYVRLSTSDKLRDTIPETSSDANMLKASIIGMVAGIAHETVNSVVKPMFQAALQKTGLNERLNMVPMKAVDTNTVIPDPFELKSEHGELVKKTPEEVAQDKAFVKSERALLNQKKVQGSSTHPVGELMAYSAFGGSQAVRQMLNDVHQINGQTLSARALASGFGGAVSASSQTLLQLKSNYVDPQGRKIPVFTPDRAESDLKKDLLKGMDLREPSVRTTFYSKALSGIQSSALTSALPPVTAQAEGASGTLSAGAILRNMALAATGSVSYLSTLYTNQSVTAEAKALKAAGMGGATPMLDRTETALNNIRHPNRESLPHTFQKSTLSGIPRVAENAYHMGRGALQLPTQMAVDTVRVVDEGVLNAVASAREALKQPTKDDDALRALEEGLLDPR"}, "B4": {"name": "HopM11-300: N-terminal protective fragment of HopM1, amino acids 1-300 (SEQ ID NO:82) (protein, listed as Pseudomonas syringae)", "chain": "MISSRIGGAGGVELSRVNQQHDTVPAQTAHPNAVTAGMNPPLTPDQSGSHATESSSAGAARLNVAARHTQLLQAFKAEHGTAPVSGAPMISSRAALLIGSLLQAEPLPFEVMAEKLSPERYQLKQFQGSDLQQRLEKFAQPGQIPDKAEVGQLIKGFAQSVADQLEHFQLMHDASPATVGQHAKADKATLAVSQTALGEYAGRASKAIGEGLSNSIASLDEHISALDLTLQDAEQGNKESLHADRQALVDAKTTLVGLHADFVKSPEAKRLASVAAHTQLDNVVSDLVTARNTVGGWKGA"}}, "key": {"[1]": {"system": "transgenic plants expressing full-length HopM1", "test": "DEX spraying of transgenic plants expressing full-length HopM1: leaf necrosis", "assay_type": "in vivo, Arabidopsis", "method": "(§1) Following inoculation, infected plants were monitored daily over a 3- to 4-day period for symptom development and bacterial multiplication. For experiments described in FIGS. 1 and 5, plants were sprayed with 30 μM dexamethasone (DEX) 24 h before bacterial inoculation (1×10^6 cfu/ml)."}, "[2]": {"system": "HopM1-mediated destabilization of AtMIN7", "test": "Immunoblot of HopM1-mediated destabilization of AtMIN7 with protease/proteasome inhibitors", "assay_type": "cell-based", "settings": "N. benthamiana leaves co-expressing AtMIN7::HA and 6×His::HopM11-712", "source_text": "AtMIN-HA and 6×His-HopM1 proteins were detected using the HA and 6×His epitope antibodies, respectively. […] AtMIN7::HA and 6×His::HopM11-712 proteins were detected with HA and 6×His epitope antibodies, respectively."}, "[3]": {"system": "Pst DC3000 ΔCEL mutant", "test": "Complementation of virulence defect in transgenic Arabidopsis expressing HopM1 or truncated derivatives", "assay_type": "in vivo", "settings": "protein expressed in transgenic Arabidopsis after DEX", "method": "as §1\n(§2) Leaves were harvested and surface sterilized as follows: 1) whole leaves were removed from a host plant and gently mixed in a 70% ethanol solution for 1 minute. Leaves were blotted briefly on paper towels then rinsed in sterile distilled water for 1 minute, then blotted dry on paper towels. Leaf disks were excised from leaves with a 0.5 cm^2 or smaller cork borer, depending on the size of the sample leaves; 2) leaf disks from the leaves of 2 or more independent replicate plants were pooled for a single tissue sample and placed in a 1.5-mL microfuge tube with 100 μL sterile distilled water, the amount of leaf tissue per tube was recorded as leaf surface area. Three or more samples were harvested for each time point. […] The number of serial dilutions necessary to get countable colonies were determined for each sample, however dilutions to 10^−7 were usually sufficient for any bacterial strain; 7) The samples were plated on the appropriate medium (e.g., Low salt Luria Bertani) supplemented with the necessary antibiotics to select for the specific inoculated bacterial strain. […]"}, "[4]": {"system": "AtMIN7", "test": "Detection of polyubiquitinated AtMIN7 in planta (western blot, ubiquitin antibody)", "assay_type": "cell-based, Nicotiana benthamiana", "settings": "MG132-treated N. benthamiana leaves", "excerpt": "Left: AtMIN7::HA and 6×His::HopM1-300, 6×His::HopM301-712 or 6×His::HopM1-712 were transiently co-expressed in MG132-treated N. benthamiana leaves. Ubiquitinated proteins were detected by western blot (WB) with a polyclonal ubiquitin (Ub) antibody (Sigma Co.). Right: AtMIN7::HA and 6×His::HopM1-712 were transiently co-expressed in 1% DMSO(−)- or MG132-treated N. benthamiana leaves. AtMIN7 was immunoprecipitated (IP) using a polyclonal AtMIN7 antibody. Ubiquitinated AtMIN7 protein was detected by western blot (WB) with a polyclonal ubiquitin (Ub) antibody (Sigma Co.). See Materials and Methods for transient expression and immunoprecipitation of AtMIN7 and HopM1 in N. benthamiana leaves."}, "[5]": {"biological_target": "T1, AtMIN7-HA (Arabidopsis thaliana, UniProt F4IXW2, DEL212-213/INS429[…])", "T1 construct": "expressed in transfected cells; host or cells: Nicotiana benthamiana leaves, Agrobacterium tumefaciens C58C1 co-infiltration (pBI121-AtMIN or pBAR1-AtMIN)", "T1 sequence (F4IXW2 with tags, fused parts or gaps DEL212-213/INS429[withheld])": "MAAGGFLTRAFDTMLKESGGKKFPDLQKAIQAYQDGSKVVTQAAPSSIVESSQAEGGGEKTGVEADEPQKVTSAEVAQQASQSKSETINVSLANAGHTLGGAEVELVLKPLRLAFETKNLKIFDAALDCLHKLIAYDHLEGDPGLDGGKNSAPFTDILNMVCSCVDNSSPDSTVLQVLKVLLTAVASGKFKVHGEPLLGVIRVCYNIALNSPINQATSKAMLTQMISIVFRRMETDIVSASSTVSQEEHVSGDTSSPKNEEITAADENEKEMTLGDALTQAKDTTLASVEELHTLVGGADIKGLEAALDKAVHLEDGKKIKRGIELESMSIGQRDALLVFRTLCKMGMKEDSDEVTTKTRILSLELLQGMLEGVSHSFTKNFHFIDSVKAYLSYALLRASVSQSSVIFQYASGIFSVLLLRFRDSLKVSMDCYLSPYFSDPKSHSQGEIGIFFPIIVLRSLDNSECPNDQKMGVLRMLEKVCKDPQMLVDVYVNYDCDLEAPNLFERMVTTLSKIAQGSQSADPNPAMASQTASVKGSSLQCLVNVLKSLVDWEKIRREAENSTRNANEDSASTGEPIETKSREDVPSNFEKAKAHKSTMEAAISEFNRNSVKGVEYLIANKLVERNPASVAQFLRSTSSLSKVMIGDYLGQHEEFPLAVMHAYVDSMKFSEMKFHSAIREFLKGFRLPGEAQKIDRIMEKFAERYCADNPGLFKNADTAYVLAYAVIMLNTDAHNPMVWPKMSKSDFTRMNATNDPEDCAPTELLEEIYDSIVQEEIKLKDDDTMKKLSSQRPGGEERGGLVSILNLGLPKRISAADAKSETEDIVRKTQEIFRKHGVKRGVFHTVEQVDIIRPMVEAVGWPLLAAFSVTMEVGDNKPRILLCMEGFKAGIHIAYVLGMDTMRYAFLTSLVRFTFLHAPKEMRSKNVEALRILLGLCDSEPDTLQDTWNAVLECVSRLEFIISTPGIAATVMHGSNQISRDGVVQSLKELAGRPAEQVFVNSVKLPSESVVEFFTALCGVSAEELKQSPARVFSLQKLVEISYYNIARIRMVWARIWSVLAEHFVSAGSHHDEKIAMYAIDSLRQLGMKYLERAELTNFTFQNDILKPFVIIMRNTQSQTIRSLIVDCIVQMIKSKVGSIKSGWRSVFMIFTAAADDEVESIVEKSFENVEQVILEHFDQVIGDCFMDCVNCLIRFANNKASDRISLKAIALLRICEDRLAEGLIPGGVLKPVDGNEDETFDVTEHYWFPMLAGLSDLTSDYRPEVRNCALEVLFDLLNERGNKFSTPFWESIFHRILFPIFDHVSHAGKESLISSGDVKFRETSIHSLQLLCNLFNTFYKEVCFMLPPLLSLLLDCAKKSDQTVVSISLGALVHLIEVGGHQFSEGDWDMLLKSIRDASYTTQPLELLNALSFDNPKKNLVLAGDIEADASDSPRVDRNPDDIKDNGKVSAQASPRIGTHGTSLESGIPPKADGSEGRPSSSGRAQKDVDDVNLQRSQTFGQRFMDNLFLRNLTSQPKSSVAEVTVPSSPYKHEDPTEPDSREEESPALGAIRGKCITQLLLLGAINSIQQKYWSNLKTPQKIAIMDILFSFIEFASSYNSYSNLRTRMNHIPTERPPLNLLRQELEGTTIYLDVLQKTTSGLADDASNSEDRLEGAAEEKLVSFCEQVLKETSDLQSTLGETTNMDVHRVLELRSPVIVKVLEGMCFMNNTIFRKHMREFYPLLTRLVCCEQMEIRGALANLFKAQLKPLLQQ", "test": "Protein pull-down assay and immunoblot in N. benthamiana leaves", "assay_type": "binding", "settings": "transient co-expression in N. benthamiana leaves, Ni-NTA pull-down", "excerpt": "N. benthamiana plants were transiently transformed with HopM1 and AtMIN proteins. In brief, fully expanded N. benthamiana leaves were co-infiltrated with Agrobacterium tumefaciens C58 C1 (for an example of co-infiltration techniques, see, Hellens, et al. (2005) Plant Methods, 1:13; herein incorporated by reference) comprising plasmids and genes described herein (for example, see, Bechtold, et al. (1993) Comptes Rendus De L Academie Des Sciences Serie Iii-Sciences De La Vie-Life Sciences 316(10):1194-1199; herein incorporated by reference).\nIn brief: leaf disc fractions were homogenized in 1×SDS-polyacrylamide gel electrophoresis (PAGE) sample buffer, boiled for 5 min, and centrifuged for 2 minutes. Proteins in the supernatant were separated on SDS-PAGE gels and transferred to Immobilon-P membrane for immunoblotting procedures (Millipore Corp., Bedford, Mass.).\nProtein pull-down analysis methods: N. benthamiana leaf discs were homogenized in lysis buffer (50 mM Tris-HCl pH=8.0, 250 mM NaCl, 10 mM β-mercaptoethanol, 1% Triton X100, 1 mM PMSF, plant protease inhibitor cocktail [Sigma Co.]). Total protein extracts were collected after centrifugation of the homogenate at 20,000-x g for 15 min at 4° C. to remove insoluble materials. […] AtMIN10-HA was detected using the HA epitope antibody."}, "[6]": {"system": "Pst DC3000", "test": "Bacterial multiplication and disease symptoms in transgenic Arabidopsis expressing HopM1 truncated derivatives", "assay_type": "in vivo", "settings": "fragment expressed in transgenic Arabidopsis", "method": "as §1, §2"}, "[7]": {"system": "Pst DC3000 ΔCEL mutant-pORF43 bacteria", "test": "Bacterial multiplication and disease symptoms in transgenic Arabidopsis expressing HopM1 truncated derivatives", "assay_type": "in vivo", "settings": "fragment expressed in transgenic Arabidopsis, compared with Col-0 gl1 or other truncated derivatives", "method": "as §1, §2"}}, "note": "Residues, ends and D or L forms follow the SMILES beside them. *: point of attachment. Cbz = O=C(OCc1ccccc1)*", "data": [{"molecule": "C[C@@H]1C[C@H]2[C@@H]3CCC4=CC(=O)C=C[C@]4(C)[C@@]3(F)[C@@H](O)C[C@]2(C)[C@@]1(O)C(=O)CO", "note": "[DEX, dexamethasone]", "values": [{"measurement": "leaf necrosis", "setting": "[1]; 0.003 μM DEX spray", "value": "did not induce leaf necrosis"}, {"measurement": "time to rapid leaf necrosis", "setting": "[1]; 30 μM DEX spray", "value": "≤ 10", "unit": "h"}]}, {"molecule": "CC(C)C[C@@H](C=O)NC(=O)[C@H](CC(C)C)NC(=O)[C@H](CC(C)C)NC(=O)OCc1ccccc1", "note": "[MG132] (Cbz-Leu-Leu-Leu-aldehyde)", "values": [{"measurement": "effect on HopM1-mediated destabilization of AtMIN7", "setting": "[2]", "value": "blocked"}]}, {"molecule": "CC[C@H](C)[C@H](NC(=O)[C@H]([C@@H](C)CC)N(C)C(C)=O)C(=O)N[C@H](C(=O)N[C@@H](CC(C)C)C(=O)[C@@]1(C)CO1)[C@@H](C)O", "note": "[epoxomicin]", "values": [{"measurement": "effect on HopM1-mediated destabilization of AtMIN7", "setting": "[2]", "value": "blocked"}]}, {"molecule": "B1", "values": [{"measurement": "complementation of the virulence defect (multiplication, chlorosis) of the Pst DC3000 ΔCEL mutant", "setting": "[3]", "value": "almost fully complemented"}, {"measurement": "polyubiquitination of AtMIN7 in vivo", "setting": "[4]", "value": "enhanced"}]}, {"molecule": "B2", "values": [{"measurement": "physical interaction with AtMIN7-HA", "setting": "[5]", "value": "no interaction"}]}, {"molecule": "B3", "values": [{"measurement": "complementation of the virulence defect (multiplication, chlorosis) of the Pst DC3000 ΔCEL mutant", "setting": "[3]", "value": "partially restored"}]}, {"molecule": "B4", "values": [{"measurement": "physical interaction with AtMIN7-HA", "setting": "[5]", "value": "physical interaction"}, {"measurement": "susceptibility to Pst DC3000", "setting": "[6]", "value": "still susceptible"}, {"measurement": "disease symptoms (necrosis and chlorosis) and bacterial multiplication within plants", "setting": "[7]", "value": "significantly reduced"}]}]}
